B1: Isoform 2 of Bardet-Biedl syndrome 7 protein (Homo sapiens), Q8IWZ6-2 (parent)
chain: MDLILNRMDYLQVGVTSQKTMKLIPASRHRATQKVVIGDHDGVVMCFGMKKGEAAAVFKTLPGPKIARLELGGVINTPQEKIFIAAASEIRGFTKRGKQFLSFETNLTESIKAMHISGSDLFLSASYIYNHYCDCKDQHYYLSGDKINDVICLPVERLSRITPVLACQDRVLRVLQGSDVMYAVEVPGPPTVLALHNGNGGDSGEDLLFGTSDGKLALIQITTSKPVRKWEIQNEKKRGGILCIDSFDIVGDGVKDLLVGRDDGMVEVYSFDNANEPVLRFDQMLSESVTSIQGGCVGKDSYDEIVVSTYSGWVTGLTTEPIHKESGPGEELKINQEMQNKISSLRNELEHLQYKVLQERENYQQSSQSSKAKSAVPSFGINDKFTLNKDDASYSLILEVQTAIDNVLIQSDVPIDLLDVDKNSAVVSFSSCDSESNDNFLLATYRCQADTTRLELKIRSIEGQYGTLQAYVTPRIQPKTCQVRQYHIKPLSLHQRTHFIDHDRPMNTLTLTGQFSFAEVHSWVVFCLPEVPEKPPAGECVTFYFQNTFLDTQLESTYRKGEGVFKSDNISTISILKDVLSKEATKRKINLNISYEINEVSVKHTLKLIHPKLEYQLLLAKKVQLIDALKELQIHEGNTNFLIPEYHCILEEADHLQEEYKKQPAHLERLYG
partner: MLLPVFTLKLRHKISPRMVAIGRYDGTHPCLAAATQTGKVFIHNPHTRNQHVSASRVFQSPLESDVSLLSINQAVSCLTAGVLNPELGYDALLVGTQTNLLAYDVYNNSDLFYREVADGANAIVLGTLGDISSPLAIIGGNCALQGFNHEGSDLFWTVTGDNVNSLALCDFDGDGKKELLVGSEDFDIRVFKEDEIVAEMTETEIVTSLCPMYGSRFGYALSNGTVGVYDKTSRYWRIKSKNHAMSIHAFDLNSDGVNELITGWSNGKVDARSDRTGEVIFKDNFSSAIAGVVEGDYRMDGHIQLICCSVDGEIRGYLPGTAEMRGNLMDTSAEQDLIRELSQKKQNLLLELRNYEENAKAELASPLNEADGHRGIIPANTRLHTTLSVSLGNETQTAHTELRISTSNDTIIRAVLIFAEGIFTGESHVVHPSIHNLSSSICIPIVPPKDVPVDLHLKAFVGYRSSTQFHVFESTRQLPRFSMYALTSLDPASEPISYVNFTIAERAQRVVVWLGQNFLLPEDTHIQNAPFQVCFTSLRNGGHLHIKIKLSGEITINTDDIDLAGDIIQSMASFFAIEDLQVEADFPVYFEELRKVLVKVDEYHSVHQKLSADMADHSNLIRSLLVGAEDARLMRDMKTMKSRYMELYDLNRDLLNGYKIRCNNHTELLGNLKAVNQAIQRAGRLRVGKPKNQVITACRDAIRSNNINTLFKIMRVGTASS

Variants of: B1
Conditions: with bbs2_human BBS2, Q9BXC9

Variant | effect of a mutation on the interaction
K489A | with no effect
K489E | with no effect
P529K | with no effect
P529S | disrupting interaction strength
P529C | disrupting interaction strength
P529A | with no effect
P529E | with no effect
C527K | with no effect
C527E | with no effect
C527A | with no effect
E519K | with no effect
E519A | with no effect
H502K | with no effect
H502A | with no effect
H502E | with no effect
I500A | with no effect
I500K | with no effect
I500E | with no effect
V525A | with no effect
V525K | with no effect
V525E | with no effect
D501K | with no effect
D501E | with no effect
D501A | with no effect
L493E | with no effect
L493P | disrupting interaction strength

Variant | effect of a mutation on the interaction
L493A | with no effect
L493K | with no effect
N507A | with no effect
N507E | with no effect
N507K | with no effect
V524K | with no effect
V524A | with no effect
V524E | with no effect
Q495A | with no effect
Q495E | with no effect
Q495K | with no effect
T508A | with no effect
T508E | with no effect
T508K | with no effect
R504K | with no effect
R504E | with no effect
R504A | with no effect
Q482K | with no effect
Q482A | with no effect
Q482E | with no effect
S516K | with no effect
S516A | with no effect
S516E | with no effect
T480K | with no effect
T480A | with no effect
T480E | with no effect

Variant | effect of a mutation on the interaction
Q514A | with no effect
Q514E | with no effect
Q514K | with no effect
I476A | disrupting interaction strength
I476K | with no effect
I476E | with no effect
E530A | with no effect
L528K | with no effect
L528E | with no effect
L528A | with no effect
V483E | with no effect
V483A | with no effect
V483I | disrupting interaction strength
V483K | with no effect
F499E | with no effect
F499S | disrupting interaction strength
F499A | with no effect
F499K | with no effect
C481A | with no effect
C481E | with no effect
C481K | with no effect
C481R | disrupting interaction strength
I488A | with no effect
I488E | with no effect
I488K | with no effect
F517A | with no effect

Variant | effect of a mutation on the interaction
F517K | with no effect
F517E | with no effect
K479E | with no effect
K479A | with no effect
H498K | with no effect
H498E | with no effect
H498A | with no effect
H487A | with no effect
H487K | with no effect
H487E | with no effect
Q477A | disrupting interaction strength
Q477E | with no effect
Q477K | with no effect
S522A | with no effect
S522E | disrupting interaction strength
S522K | with no effect
T510K | with no effect
T510E | with no effect
T510A | with no effect
T512E | with no effect
T512K | with no effect
T512A | with no effect
P490E | with no effect
P490A | with no effect
P490K | with no effect
P490L | disrupting interaction strength

Variant | effect of a mutation on the interaction
H521K | with no effect
H521A | with no effect
H521E | with no effect
S492A | with no effect
S492K | with no effect
S492E | with no effect
F526K | with no effect
F526A | with no effect
F526E | with no effect
F515A | with no effect
F515E | with no effect
F515K | disrupting interaction strength
M506K | with no effect
M506A | with no effect
M506E | with no effect
L511A | with no effect
L511P | disrupting interaction strength
L511E | with no effect
L511K | with no effect
V520E | with no effect
V520K | with no effect
V520A | with no effect
R496K | with no effect
R496A | with no effect
R496E | with no effect
D503E | with no effect

Variant | effect of a mutation on the interaction
D503A | with no effect
D503K | with no effect
R484K | with no effect
R484A | with no effect
R484E | with no effect
G513K | with no effect
G513E | with no effect
G513D | disrupting interaction strength
G513H | disrupting interaction strength
G513Y | disrupting interaction strength
G513A | with no effect
G513S | disrupting interaction strength
T497K | with no effect
T497E | with no effect
T497A | with no effect
A518E | with no effect
A518K | with no effect
Y486K | with no effect
Y486E | with no effect
Y486A | with no effect
L509K | with no effect
L509A | with no effect
L509P | disrupting interaction strength
L509E | with no effect
Q485L | disrupting interaction strength
Q485R | disrupting interaction strength

Variant | effect of a mutation on the interaction
Q485K | with no effect
Q485E | with no effect
Q485N | disrupting interaction strength
Q485A | with no effect
W523A | disrupting interaction strength
W523K | with no effect
W523E | with no effect
L491P | disrupting interaction strength
L491E | with no effect
L491A | with no effect
L491K | with no effect
P478E | with no effect
P478K | with no effect
P478A | with no effect
P505E | with no effect
P505K | with no effect
P505A | with no effect
H494A | with no effect
H494E | with no effect
H494K | with no effect
